14 molecules from patent publication US8680041B2, “Genetic variations associated with tumors” (Genentech, Inc., priority 2006, dated 2014) can be followed below.

The target of one test is T1, p110alpha H1047R (Homo sapiens, UniProt P42336, H1047R).
T1 construct: expressed in transfected cells; host or cells: Cos 7
Description: Co-immunoprecipitation of HA-tagged p85α with p110α in transfected Cos 7 cells. To be noted: HA bead immunoprecipitation, blot. More on the design: key: “yes” (“Y”); “no” (“N”). The test is classed as binding. On the procedure:
(§1) The ability of p85α mutants to bind to p110α was assessed. Cos 7 cells were transiently transfected with nucleic acid encoding N-terminally HA-tagged p85α protein (either wild-type or mutant, as indicated in Table 2 below) and with nucleic acid encoding p110α (either wild-type or mutant, as indicated in Table 2 below). Proteins were immunoprecipitated using HA beads, separated by SDS-PAGE, transferred to nitrocellulose, and detected using anti-HA and anti-p110α antibodies. Binding of p85α to p110α is indicated as either “yes” (“Y”) or “no” (“N”) in Table 2. In the second row of Table 2, the term “p85 Dominant Negative” refers to a known dominant negative form of p85α in which the p110α binding domain from amino acids 479-513 is deleted. The remaining mutant forms of p85α listed in the first column of Table 2 were discovered pursuant to this study. In the header row of Table 2, the terms “p110alpha E545K” and “p110alpha H1047R” refer to two known mutational “hot spots” in p110α which result in constitutively active p110α.

In the next test the target is T2, p110alpha WT (Homo sapiens, UniProt P42336).
T2 construct: expressed in transfected cells; host or cells: Cos 7
The test is described as above. More on the design: key: “yes” (“Y”); “no” (“N”). As to conditions: HA bead immunoprecipitation, blot. The test is classed as binding. On the procedure:
as §1

In another test the target is T3, p110alpha E545K (Homo sapiens, UniProt P42336, E545K).
T3 construct: expressed in transfected cells; host or cells: Cos 7
The test is described as above. The test is classed as binding. On the set-up: key: “yes” (“Y”); “no” (“N”). As to conditions: HA bead immunoprecipitation, blot. As for the experimental part: as §1

The test system of a further test is wild-type p110α. Description: Fluorescence polarization assay of p110α activity in p85α/p110α complexes, phosphoinositide as substrate. The format is biochemical. To be noted: for p110α activity of the complex compared with the wild type complex (in words): absence of peptide; for Activity of p110α in the complex, No peptide: no phosphotyrosine peptide; for Activity of p110α in the complex, No peptide / Activity of p110α in the complex, Peptide (1 uM): normalized to wild-type complex in the absence of peptide; for Activity of p110α in the complex, Peptide (1 uM): phosphotyrosine (IRS-1) peptide 1 uM. As for the experimental part:
The ability of p85α mutant proteins to form active complexes with p110α was also assessed. Complexes consisting of p85α protein (either wild-type or mutant, as indicated in Table 3 below) and wild-type p110α were expressed in baculovirus. Activity of p110α in the complexes was assessed using a fluorescence polarization assay with phosphoinositide as the substrate. The assay was conducted in the absence or presence of a phosphotyrosine peptide (referred to as “peptide” in Table 3 below). That peptide corresponds to a phosphotyrosine-containing region of Insulin Receptor Substrate-1 that binds to the SH2 region of p85α and enhances the activity of the wild-type p85α/p110α complex. See Miled et al., Science, 317:239-242 (2007). The p85α mutants tested in Table 3 have mutations in their C-terminal SH2 domains. The activities were normalized to the value obtained for p110α in the wild-type complex in the absence of peptide.
In general terms: In fluorescence polarisation assays a small probe gives low polarisation when free and higher when bound to something large.

T3 sequence (P42336 whole entry E545K): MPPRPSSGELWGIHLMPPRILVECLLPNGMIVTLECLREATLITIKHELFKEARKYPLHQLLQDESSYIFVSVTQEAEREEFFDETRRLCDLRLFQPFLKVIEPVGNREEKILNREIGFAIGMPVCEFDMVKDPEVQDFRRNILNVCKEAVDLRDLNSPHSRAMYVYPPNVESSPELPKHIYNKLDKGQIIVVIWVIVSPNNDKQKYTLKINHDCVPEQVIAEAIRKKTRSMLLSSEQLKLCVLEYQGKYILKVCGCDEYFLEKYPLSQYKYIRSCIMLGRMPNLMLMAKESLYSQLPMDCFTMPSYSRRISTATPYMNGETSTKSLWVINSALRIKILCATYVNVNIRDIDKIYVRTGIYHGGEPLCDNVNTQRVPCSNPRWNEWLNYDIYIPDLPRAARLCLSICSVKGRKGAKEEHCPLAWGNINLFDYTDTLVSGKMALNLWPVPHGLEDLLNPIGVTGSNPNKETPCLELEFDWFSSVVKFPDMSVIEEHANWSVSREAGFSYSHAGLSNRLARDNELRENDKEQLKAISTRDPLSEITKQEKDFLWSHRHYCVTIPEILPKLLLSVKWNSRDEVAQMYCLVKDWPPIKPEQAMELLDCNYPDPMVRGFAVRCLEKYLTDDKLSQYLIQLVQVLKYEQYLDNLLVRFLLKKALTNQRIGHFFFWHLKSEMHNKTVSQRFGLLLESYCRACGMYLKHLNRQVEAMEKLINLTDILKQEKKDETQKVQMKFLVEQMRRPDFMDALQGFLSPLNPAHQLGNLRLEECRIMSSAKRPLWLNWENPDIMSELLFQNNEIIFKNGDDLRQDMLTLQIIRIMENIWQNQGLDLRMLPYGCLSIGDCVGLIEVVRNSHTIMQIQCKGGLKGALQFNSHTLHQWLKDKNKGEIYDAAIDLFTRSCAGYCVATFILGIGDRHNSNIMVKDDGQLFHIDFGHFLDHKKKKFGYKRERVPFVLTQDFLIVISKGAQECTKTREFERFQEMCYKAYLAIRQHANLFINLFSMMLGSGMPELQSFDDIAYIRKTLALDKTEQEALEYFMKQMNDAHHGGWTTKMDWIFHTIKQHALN
T1 sequence (P42336 whole entry H1047R): as the sequence (P42336 whole entry E545K) above, with K545E, H1047R counted along it
T2 sequence (P42336 whole entry): as the sequence (P42336 whole entry E545K) above, with K545E counted along it

For “p85 A682V: mutant form of p85α discovered pursuant to this study”, the “Binding of p85α to p110α” value with p110alpha H1047R, with p110alpha WT and with p110alpha E545K was “Y” each time.
Turning to “p85 Dominant Negative: known dominant negative form of p85α in which the p110α binding domain from amino acids 479-513 is deleted [reference compound]”, the “Binding of p85α to p110α” value in the test with p110alpha H1047R, in the test with p110alpha WT and in the test with p110alpha E545K was “N” each time.
With “p85 E666K: mutant form of p85α discovered pursuant to this study”, the “Binding of p85α to p110α” value with p110alpha H1047R, in the test with p110alpha WT and in the test with p110alpha E545K was “Y” each time. The “p110α activity of the complex compared with the wild type complex (in words)” value with wild-type p110α was “comparable to that seen in the wild type complex”. In addition, in the test on wild-type p110α, the “Activity of p110α in the complex, No peptide” value (from here on “Activity of p110α … No peptide”) turned out to be 0.92. Moreover, the “Activity of p110α in the complex, Peptide (1 uM)” value (“Activity of p110α … (1 uM)” for short) in the test with wild-type p110α came to 2.54.
Regarding “p85 L449S: mutant form of p85α discovered pursuant to this study”, the “Binding of p85α to p110α” value in the test with p110alpha H1047R, with p110alpha WT and in the test with p110alpha E545K was “Y” throughout.
With “p85 N285H: mutant form of p85α discovered pursuant to this study”, the “Binding of p85α to p110α” value in the test with p110alpha H1047R, in the test with p110alpha WT and in the test with p110alpha E545K was “Y” in each case.
On to “p85 N527K: mutant form of p85α discovered pursuant to this study”, for which the “Binding of p85α to p110α” value in the test with p110alpha H1047R was “Y”. Further, the “Binding of p85α to p110α” value in the test with p110alpha WT is reported as “Y”. Also, in the test with p110alpha E545K, the “Binding of p85α to p110α” value is given as “Y”. In the test on wild-type p110α, the “p110α activity of the complex compared with the wild type complex (in words)” value is listed as “decreased p110α activity”; the “Activity of p110α … No peptide” value came out at 0.75; the “Activity of p110α … (1 uM)” value stood at 1.92.
In the case of “p85 N564D: mutant form of p85α discovered pursuant to this study”, in the test with p110alpha H1047R, the “Binding of p85α to p110α” value is “Y”. Also, the “Binding of p85α to p110α” value in the test with p110alpha WT is given as “Y”. Moreover, the “Binding of p85α to p110α” value with p110alpha E545K is “Y”. Besides, in the test with wild-type p110α, the “p110α activity of the complex compared with the wild type complex (in words)” value is on record as “increased p110α activity”; the “Activity of p110α … No peptide” value was determined as 1.71; the “Activity of p110α … (1 uM)” value was determined as 2.47.
With “p85 R348stop: mutant form of p85α discovered pursuant to this study; truncated”, the “Binding of p85α to p110α” value with p110alpha H1047R, with p110alpha WT and in the test with p110alpha E545K was “N” throughout.
Consider “p85 R543I: mutant form of p85α discovered pursuant to this study”, for which the “Binding of p85α to p110α” value with p110alpha H1047R, with p110alpha WT and in the test with p110alpha E545K was “Y” each time.
On to “p85 R574I: mutant form of p85α discovered pursuant to this study”, for which the “Binding of p85α to p110α” value with p110alpha H1047R, in the test with p110alpha WT and with p110alpha E545K was “Y” in each case.
In the case of “p85 R642stop: mutant form of p85α discovered pursuant to this study”, the “Binding of p85α to p110α” value with p110alpha H1047R, with p110alpha WT and with p110alpha E545K was “Y” each time.
Regarding “p85 R649Q: mutant form of p85α discovered pursuant to this study”, the “Binding of p85α to p110α” value in the test with p110alpha H1047R is listed as “Y”. Further, in the test with p110alpha WT, the “Binding of p85α to p110α” value is “Y”. In addition, the “Binding of p85α to p110α” value with p110alpha E545K is listed as “Y”. Further, in the test with wild-type p110α, the “p110α activity of the complex compared with the wild type complex (in words)” value is on record as “decreased p110α activity”; the “Activity of p110α … No peptide” value is 0.45; the “Activity of p110α … (1 uM)” value worked out at 1.7.
As to “p85 WT: wild-type p85α, regulatory subunit of PI3K encoded by PIK3R1 [reference compound]”, in the test on wild-type p110α, the “Activity of p110α … No peptide” value was determined as 1 and the “Activity of p110α … (1 uM)” value came out at 2.77.

B1: p85 R162stop: mutant form of p85α discovered pursuant to this study; truncated (protein)
chain: MSAEGYQYRALYDYKKEREEDIDLHLGDILTVNKGSLVALGFSDGQEARPEEIGWLNGYNETTGERGDFPGTYVEYIGRKKISPPTPKPRPPRPLPVAPGSSKTEADVEQQALTLPDLAEQFAPPDIAPPLLIKLVEAIEKKGLECSTLYRTQSSSNLAEL
modifications: left off: small tags and cut ends
notes: mutant form of p85α discovered pursuant to this study; truncated
With B1, the “Binding of p85α to p110α” value with p110alpha H1047R, in the test with p110alpha WT and with p110alpha E545K was “N” throughout.
